{
  "source": "paper PMC11463468",
  "key": {"[1]": {"target": "T1, MBD-Halo-AF660 (Homo sapiens, UniProt Q9UIS9 1-77)", "T1 sequence": "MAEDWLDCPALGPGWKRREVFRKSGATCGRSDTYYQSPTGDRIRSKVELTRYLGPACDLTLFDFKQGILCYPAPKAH", "assay": "single-molecule TIRF"}, "[2]": {"target": "T1, MBD-Halo-AF660", "assay": "single-molecule TIRF", "remark": "listed apart in the source"}, "[3]": {"target": "T1, MBD-Halo-AF660", "assay": "single-molecule TIRF", "remark": "listed apart in the source"}, "[4]": {"target": "T1, MBD-Halo-AF660", "assay": "single-molecule TIRF", "remark": "listed apart in the source"}, "[5]": {"target": "T1, MBD-Halo-AF660", "assay": "single-molecule TIRF", "remark": "listed apart in the source"}, "[6]": {"target": "T1, MBD-Halo-AF660", "assay": "single-molecule TIRF", "remark": "listed apart in the source"}, "[7]": {"target": "T1, MBD-Halo-AF660", "assay": "single-molecule TIRF", "remark": "listed apart in the source"}, "[8]": {"target": "T1, MBD-Halo-AF660", "assay": "single-molecule TIRF", "remark": "listed apart in the source"}, "[9]": {"target": "T1, MBD-Halo-AF660", "assay": "single-molecule TIRF", "remark": "listed apart in the source"}, "[10]": {"target": "T1, MBD-Halo-AF660", "assay": "single-molecule TIRF", "remark": "listed apart in the source"}, "[11]": {"target": "T1, MBD-Halo-AF660", "assay": "single-molecule TIRF", "remark": "listed apart in the source"}, "[12]": {"target": "T1, MBD-Halo-AF660", "assay": "single-molecule TIRF", "remark": "listed apart in the source"}, "[13]": {"target": "T1, MBD-Halo-AF660", "assay": "single-molecule TIRF", "remark": "listed apart in the source"}, "[14]": {"target": "T1, MBD-Halo-AF660", "assay": "single-molecule TIRF", "remark": "listed apart in the source"}, "[15]": {"target": "T1, MBD-Halo-AF660", "assay": "EMSA"}, "[16]": {"target": "T2, MBD-Halo (MBD1 MBD-GGGSG-HaloTag) (Homo sapiens, UniProt Q9UIS9 1-77)", "T2 sequence": "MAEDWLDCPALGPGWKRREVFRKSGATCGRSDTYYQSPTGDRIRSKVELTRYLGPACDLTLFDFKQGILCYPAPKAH", "assay": "EMSA"}},
  "data": [
    {"binder": "ATAATTAATAGCATCAGCAGGAAGAC (ssDNA)", "note": "[CPO alone (NTC)]", "values": [
      {"measurement": "binding result", "setting": "[1]", "value": "no binding"}
    ]},
    {"binder": "SM single-molecule (M7-A39m-CPO) (dsDNA, 5mC strand 1: 21,29,31,39,42,44,53; strand 2: 2,11,13,16,24,26,34) DNA 1: GTCTTCCTGCTGATGCAATCCGCTAGGTCGCGAGTCTCCGCCGCGAGAGGGCCGG DNA 2: CCGGCCCTCTCGCGGCGGAGACTCGCGACCTAGCGGATT DNA 3: ATAATTAATAGCATCAGCAGGAAGAC", "values": [
      {"measurement": "binding result", "setting": "[2]", "value": "binds"}
    ]},
    {"binder": "M3a-A39m-CP (dsDNA, 5mC strand 1: 39,42,44; strand 2: 2,11,13,16,24,26,34) DNA 1: GTCTTCCTGCTGATGCAATCCGCTAGGTCGCGAGTCTCCGCCGCGAGAGGGCCGG DNA 2: CCGGCCCTCTCGCGGCGGAGACTCGCGACCTAGCGGATT DNA 3: GCATCAGCAGGAAGAC", "values": [
      {"measurement": "binding result", "setting": "[3]", "value": "binds"}
    ]},
    {"binder": "M1b-A39m-CP (dsDNA, 5mC strand 1: 53; strand 2: 2,11,13,16,24,26,34) DNA 1: GTCTTCCTGCTGATGCAATCCGCTAGGTCGCGAGTCTCCGCCGCGAGAGGGCCGG DNA 2: CCGGCCCTCTCGCGGCGGAGACTCGCGACCTAGCGGATT DNA 3: GCATCAGCAGGAAGAC", "values": [
      {"measurement": "binding result", "setting": "[4]", "value": "no binding"}
    ]},
    {"binder": "M7-A17O-CPO (mixed, 5mC strand 1: 21,29,31,39,42,44,53) DNA 1: GTCTTCCTGCTGATGCAATCCGCTAGGTCGCGAGTCTCCGCCGCGAGAGGGCCGG DNA 2: CTTATCTGTTTCGCGACCTAGCGGATT DNA 3: ATAATTAATAGCATCAGCAGGAAGAC", "values": [
      {"measurement": "binding result", "setting": "[5]", "value": "binds"}
    ]},
    {"binder": "M4a-A17O-CP (mixed, 5mC strand 1: 29,31,42,44) DNA 1: GTCTTCCTGCTGATGCAATCCGCTAGGTCGCGAGTCTCCGCCGCGAGAGGGCCGG DNA 2: CTTATCTGTTTCGCGACCTAGCGGATT DNA 3: GCATCAGCAGGAAGAC", "values": [
      {"measurement": "binding result", "setting": "[6]", "value": "binds"}
    ]},
    {"binder": "M7-A39m-CP (dsDNA, 5mC strand 1: 21,29,31,39,42,44,53; strand 2: 2,11,13,16,24,26,34) DNA 1: GTCTTCCTGCTGATGCAATCCGCTAGGTCGCGAGTCTCCGCCGCGAGAGGGCCGG DNA 2: CCGGCCCTCTCGCGGCGGAGACTCGCGACCTAGCGGATT DNA 3: GCATCAGCAGGAAGAC", "values": [
      {"measurement": "binding result", "setting": "[7]", "value": "binds"}
    ]},
    {"binder": "M7-A39O-CP (mixed, 5mC strand 1: 21,29,31,39,42,44,53) DNA 1: GTCTTCCTGCTGATGCAATCCGCTAGGTCGCGAGTCTCCGCCGCGAGAGGGCCGG DNA 2: CTTATCTGTTCCGGCCCTCTCGCGGCGGAGACTCGCGACCTAGCGGATT DNA 3: GCATCAGCAGGAAGAC", "values": [
      {"measurement": "binding result", "setting": "[4]", "value": "no binding"}
    ]},
    {"binder": "M4a-A39m-CP (dsDNA, 5mC strand 1: 29,31,42,44; strand 2: 2,11,13,16,24,26,34) DNA 1: GTCTTCCTGCTGATGCAATCCGCTAGGTCGCGAGTCTCCGCCGCGAGAGGGCCGG DNA 2: CCGGCCCTCTCGCGGCGGAGACTCGCGACCTAGCGGATT DNA 3: GCATCAGCAGGAAGAC", "values": [
      {"measurement": "binding result", "setting": "[8]", "value": "binds"}
    ]},
    {"binder": "M2a-A39m-CP (dsDNA, 5mC strand 1: 29,31; strand 2: 2,11,13,16,24,26,34) DNA 1: GTCTTCCTGCTGATGCAATCCGCTAGGTCGCGAGTCTCCGCCGCGAGAGGGCCGG DNA 2: CCGGCCCTCTCGCGGCGGAGACTCGCGACCTAGCGGATT DNA 3: GCATCAGCAGGAAGAC", "values": [
      {"measurement": "binding result", "setting": "[9]", "value": "binds"}
    ]},
    {"binder": "M2c-A39m-CP (dsDNA, 5mC strand 1: 42,53; strand 2: 2,11,13,16,24,26,34) DNA 1: GTCTTCCTGCTGATGCAATCCGCTAGGTCGCGAGTCTCCGCCGCGAGAGGGCCGG DNA 2: CCGGCCCTCTCGCGGCGGAGACTCGCGACCTAGCGGATT DNA 3: GCATCAGCAGGAAGAC", "values": [
      {"measurement": "binding result", "setting": "[4]", "value": "no binding"}
    ]},
    {"binder": "M7-A39-CP (dsDNA, 5mC strand 1: 21,29,31,39,42,44,53) DNA 1: GTCTTCCTGCTGATGCAATCCGCTAGGTCGCGAGTCTCCGCCGCGAGAGGGCCGG DNA 2: CCGGCCCTCTCGCGGCGGAGACTCGCGACCTAGCGGATT DNA 3: GCATCAGCAGGAAGAC", "values": [
      {"measurement": "binding result", "setting": "[4]", "value": "no binding"}
    ]},
    {"binder": "M4a-CP (structured_DNA, 5mC strand 1: 29,31,42,44) DNA 1: GTCTTCCTGCTGATGCAATCCGCTAGGTCGCGAGTCTCCGCCGCGAGAGGGCCGG DNA 2: GCATCAGCAGGAAGAC", "values": [
      {"measurement": "binding result", "setting": "[10]", "value": "binds"}
    ]},
    {"binder": "M7-A17O-CP (mixed, 5mC strand 1: 21,29,31,39,42,44,53) DNA 1: GTCTTCCTGCTGATGCAATCCGCTAGGTCGCGAGTCTCCGCCGCGAGAGGGCCGG DNA 2: CTTATCTGTTTCGCGACCTAGCGGATT DNA 3: GCATCAGCAGGAAGAC", "values": [
      {"measurement": "binding result", "setting": "[11]", "value": "binds"}
    ]},
    {"binder": "M7-CPO (structured_DNA, 5mC strand 1: 21,29,31,39,42,44,53) DNA 1: GTCTTCCTGCTGATGCAATCCGCTAGGTCGCGAGTCTCCGCCGCGAGAGGGCCGG DNA 2: ATAATTAATAGCATCAGCAGGAAGAC", "values": [
      {"measurement": "binding result", "setting": "[12]", "value": "binds"}
    ]},
    {"binder": "M4a-CPO (structured_DNA, 5mC strand 1: 29,31,42,44) DNA 1: GTCTTCCTGCTGATGCAATCCGCTAGGTCGCGAGTCTCCGCCGCGAGAGGGCCGG DNA 2: ATAATTAATAGCATCAGCAGGAAGAC", "values": [
      {"measurement": "binding result", "setting": "[13]", "value": "binds"}
    ]},
    {"binder": "M0-CP (structured_DNA) DNA 1: GTCTTCCTGCTGATGCAATCCGCTAGGTCGCGAGTCTCCGCCGCGAGAGGGCCGG DNA 2: GCATCAGCAGGAAGAC", "values": [
      {"measurement": "binding result", "setting": "[4]", "value": "no binding"}
    ]},
    {"binder": "M7-CP (structured_DNA, 5mC strand 1: 21,29,31,39,42,44,53) DNA 1: GTCTTCCTGCTGATGCAATCCGCTAGGTCGCGAGTCTCCGCCGCGAGAGGGCCGG DNA 2: GCATCAGCAGGAAGAC", "values": [
      {"measurement": "binding result", "setting": "[14]", "value": "binds"}
    ]},
    {"binder": "SM 55 bp (M7/M7_rev) (dsDNA, 5mC strand 1: 21,29,31,39,42,44,53; strand 2: 2,11,13,16,24,26,34) DNA 1: GTCTTCCTGCTGATGCAATCCGCTAGGTCGCGAGTCTCCGCCGCGAGAGGGCCGG DNA 2: CCGGCCCTCTCGCGGCGGAGACTCGCGACCTAGCGGATTGCATCAGCAGGAAGAC", "values": [
      {"measurement": "binding result", "setting": "[15]", "value": "binds"},
      {"measurement": "binding result", "setting": "[16]", "value": "binds"}
    ]}
  ]
}
